From patent US20040248081, “LANA viral protein binding sites” (THE REGENTS OF THE UNIVERSITY OF MICHIGAN, published 2004)

Assays:
LANA 1-950 = target: T1, LANA 1-950 (Kaposi's sarcoma-associated herpesvirus); experiment: EMSA; conditions: label: radiolabel
T1 chain: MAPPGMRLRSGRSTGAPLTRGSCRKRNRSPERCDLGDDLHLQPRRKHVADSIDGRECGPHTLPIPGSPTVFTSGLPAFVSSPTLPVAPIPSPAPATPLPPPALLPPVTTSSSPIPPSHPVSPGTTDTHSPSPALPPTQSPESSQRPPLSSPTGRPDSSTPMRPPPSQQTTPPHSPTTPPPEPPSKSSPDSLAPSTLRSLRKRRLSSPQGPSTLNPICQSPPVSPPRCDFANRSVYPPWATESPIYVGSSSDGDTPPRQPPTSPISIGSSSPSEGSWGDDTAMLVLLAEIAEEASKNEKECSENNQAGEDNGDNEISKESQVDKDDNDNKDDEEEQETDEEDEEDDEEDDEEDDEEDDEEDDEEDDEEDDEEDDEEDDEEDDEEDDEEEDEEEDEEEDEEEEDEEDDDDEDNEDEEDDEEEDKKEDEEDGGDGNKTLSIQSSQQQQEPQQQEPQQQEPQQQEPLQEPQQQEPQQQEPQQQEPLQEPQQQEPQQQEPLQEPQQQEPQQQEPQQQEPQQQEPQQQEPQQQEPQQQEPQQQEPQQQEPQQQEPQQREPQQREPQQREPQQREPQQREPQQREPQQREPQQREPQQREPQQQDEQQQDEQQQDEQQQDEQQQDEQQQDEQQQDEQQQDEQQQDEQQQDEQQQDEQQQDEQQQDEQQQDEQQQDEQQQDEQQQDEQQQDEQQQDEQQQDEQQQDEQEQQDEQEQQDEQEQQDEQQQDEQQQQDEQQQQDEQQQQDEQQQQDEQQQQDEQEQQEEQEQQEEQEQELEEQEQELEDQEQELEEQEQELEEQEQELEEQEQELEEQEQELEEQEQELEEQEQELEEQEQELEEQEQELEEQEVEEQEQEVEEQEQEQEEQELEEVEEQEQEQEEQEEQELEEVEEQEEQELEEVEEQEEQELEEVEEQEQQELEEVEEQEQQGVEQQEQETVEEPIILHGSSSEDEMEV

LANA 9-11 (last 237 aa) = LANA 9-11 (last 237 aa) (Kaposi's sarcoma-associated herpesvirus, UniProt Q9QR71 SEQ:926-1162); experiment: EMSA; lacks leucine zipper; anti-LANA supershift; conditions: tags: GST; label: radiolabel
Chain of LANA 9-11 (last 237 aa) (Q9QR71 893-1129): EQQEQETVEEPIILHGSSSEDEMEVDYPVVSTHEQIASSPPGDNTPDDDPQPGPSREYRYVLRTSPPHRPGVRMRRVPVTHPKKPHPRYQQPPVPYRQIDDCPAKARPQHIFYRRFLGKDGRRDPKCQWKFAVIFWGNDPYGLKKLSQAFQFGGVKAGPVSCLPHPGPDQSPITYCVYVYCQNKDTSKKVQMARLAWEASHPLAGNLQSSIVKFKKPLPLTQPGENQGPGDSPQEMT

B1: TLBR4 (dsDNA)
DNA 1: TCCCGCCCGGGCATGGG
DNA 2: CCCATGCCCGGGCGGGA
B1: no binding (LANA 1-950); binds (LANA 9-11 (last 237 aa)).
